From article PMC9468113

Target: MST-Red-labeled human MIF (human) (UniProt P14174)
Assay: MST; Monolith NT.115, 25 °C; MST-Red-MIF at fixed concentration (312 nM with CXCL4L1, 456 nM with CXCL4) with serial dilutions of the chemokine; 10 mM Tris-HCl, pH 8.0, 0.01% BSA; both in solution

MST-Red-labeled human MIF (human), sequence (P14174 2-115): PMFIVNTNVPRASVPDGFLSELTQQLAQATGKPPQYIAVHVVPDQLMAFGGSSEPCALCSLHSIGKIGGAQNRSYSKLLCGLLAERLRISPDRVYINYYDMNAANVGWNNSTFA

- Kd: 2000 nM
Substance: recombinant human CXCL4 (PF4), Peprotech (from UniProt P02776 32-101) (natural protein)
